Source: patent US20230104578A1 (ADRENOMED, published 2023)
Read-outs that look alike come from different tables or passages of the source. Ends that are not written are not given here.

B1: mature human Adrenomedullin (amino acids 1-52) (peptide)
peptide: YRQSMNNFQGLRSFGCRFGTCTVQKLAHQIYQFTDKDKDNVAPRSKISPQGY-NH2
modifications: ends and bridges not checked

Experiments:
[1] = biological target: T1, human recombinant adrenomedullin receptor (CRLR+RAMP3) (human); assay: cell-based or functional assay
[2] = biological target: T1, human recombinant adrenomedullin …; assay: cell-based or functional assay; remark: listed apart in the source

T1 sequence (Q16602 whole entry, chain 1 of 2): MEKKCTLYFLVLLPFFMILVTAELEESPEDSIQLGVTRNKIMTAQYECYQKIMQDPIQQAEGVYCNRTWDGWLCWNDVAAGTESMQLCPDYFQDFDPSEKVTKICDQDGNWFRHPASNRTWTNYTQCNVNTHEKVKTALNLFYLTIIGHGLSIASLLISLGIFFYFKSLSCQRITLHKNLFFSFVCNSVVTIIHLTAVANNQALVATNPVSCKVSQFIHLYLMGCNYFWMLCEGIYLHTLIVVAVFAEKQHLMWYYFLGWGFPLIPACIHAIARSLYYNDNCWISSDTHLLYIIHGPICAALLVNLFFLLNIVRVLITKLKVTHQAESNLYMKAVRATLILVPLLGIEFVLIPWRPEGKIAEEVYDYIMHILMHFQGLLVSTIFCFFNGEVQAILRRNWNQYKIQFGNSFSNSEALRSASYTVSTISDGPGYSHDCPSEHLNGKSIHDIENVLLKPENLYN
T1 sequence (O60896 whole entry, chain 2 of 2, further chain): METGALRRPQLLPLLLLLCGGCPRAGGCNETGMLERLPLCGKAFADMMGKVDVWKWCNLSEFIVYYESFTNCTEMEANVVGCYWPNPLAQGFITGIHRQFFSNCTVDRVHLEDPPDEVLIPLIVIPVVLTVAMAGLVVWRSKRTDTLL

Row | Binder | EC50 (read off the curve); cAMP (HTRF), % activation [1] [nM] | EC50 (read off the curve); cAMP (HTRF), % activation [2] [nM]
1 | B1 | ~1 | –
2 | YRQSMNQGSRSNGCRFGTCTFQKLAHQIYQLTDKDKDGMAPRNKISPQGY-NH2 (ends and bridges not checked) [Murine ADM 1-50] | – | ~0.08
